These results are taken from publication PMC6971206.

Assay [1] concerns the target bc1 complex (Complex III), dimer (S. cerevisiae (endogenous in BY4741 mitochondria)) (UniProt P07256). Kind of assay: native gel or EMSA; BN-PAGE (3-12% NativePage Bis-Tris) of mitochondria solubilised in 2% digitonin, then Western blot or second-dimension SDS-PAGE and immuno decoration; comigration; cells grown in YPGal, YPD or YPG; wild type, rcf1Δ, rcf2Δ and truncation strains. A general note: A gel shift assay detects complexes by their altered migration in electrophoresis.

The target of assay [2] is respiratory supercomplexes (III2IV and III2IV2) of bc1 complex and cytochrome c oxidase (S. cerevisiae (endogenous in BY4741 mitochondria)) (UniProt P07256). The assay is described as above.

On to “cytochrome c oxidase (Complex IV), monomeric (from UniProt P00401 1-534; P00410 16-251; P00420 1-269; P04037 26-155; P00424 21-153; P00427 41-148; Q01519 1-83; P32799 10-129)”, for which, in assay [1], the fold change of the share residing in supercomplexes, YPG against YPD turned out to be 1.4 fold.

B1: Rcf2 (respiratory supercomplex factor 2) (natural protein)
chain: MKILTQDEIEAHRSHTLKGGIEGALAGFAISAIIFKVLPRRYPKFKPSTLTWSIKTALWITPPTVLTAICAEEASNNFDATMYGSGSSSEDALDEHRRWKSLSTKDKFVEGLSNNKYKIITGAWAASLYGSWVIVNKDPIMTKAQKIVQARMYAQFITVGLLLASVGLSMYENKLHPNKQKVNEMRRWENALRVAEEEERLEKEGRRTGYVSNEERINSKIFKS
For the molecule B1, the fold change of the share residing in supercomplexes, YPG against YPD in assay [2] came out at 3.7 fold.

B2: Rcf1 (respiratory supercomplex factor 1) (natural protein)
chain: MSRMPSSFDVTERDLDDMTFGERIIYHCKKQPLVPIGCLLTTGAVILAAQNVRLGNKWKAQYYFRWRVGLQAATLVALVAGSFIYGTSGKELKAKEEQLKEKAKMREKLWIQELERREEETEARRKRAELARMKTLENEEEIKNLEKELSDLENKLGKK
B2: in assay [2], the fold change of the share residing in supercomplexes, YPG against YPD worked out at 2.5 fold.
